Test in all cases: cell-based or functional assay
For assay [1], the target named is HIV-1 93IN905 envelope protein (Env) on pseudovirus (HIV-1).
Assay [2] deals with HIV-1 APV-13 envelope protein (Env) on pseudovirus (HIV-1).
Assay [3] addresses HIV-1 Env of isolate MGRM-D-022 (clade D) (HIV-1).
Assay [4] has as its target HIV-1 MGRM-C-007 Env (HIV-1).
Assay [5] addresses HIV-1 MGRM-F1-021 Env (pseudovirus) (HIV-1).
Assay [6] addresses HIV-1 IAVI-C18 envelope glycoprotein (Env) on pseudovirus (HIV-1).
Assay [7] has as its target HIV-1 94UG103 envelope protein (Env) on pseudotyped virus (HIV-1 isolate 94UG103).
For assay [8], the target named is HIV-1 Env of isolate PVO.4 (HIV-1).
Assay [9] deals with HIV-1 Env of isolate MG RM-AG-009 (HIV-1).
In assay [10] the target is HIV-1 Env of isolate MG RM-D-003 (subtype D) (HIV-1).
In assay [11] the target is HIV-1 Env of isolate MG RM-D-020 (subtype D) (HIV-1).
In assay [12] the target is HIV-1 Env of isolate MGRM-C-007 (pseudovirus) (HIV-1 isolate MGRM-C-007, subtype C).
Assay [13] has as its target HIV-1 MGRM-Chronic-B-004 Env (pseudovirus) (HIV-1).
The target in assay [14] is HIV-1 MGRM-Chronic-B-017 Env (pseudovirus) (HIV-1).
In assay [15] the target is HIV-1 Env of isolate 93MW959 (pseudovirus) (HIV-1 isolate 93MW959, subtype C).
The target in assay [16] is HIV-1 Env of isolate MG RM-AG-003 (HIV-1).
Assay [17] concerns the target HIV-1 MGRM-AG-005 envelope glycoprotein (Env) on pseudovirus (HIV-1).
For assay [18], the target named is HIV-1 MGRM-Chronic-B-010 Env (pseudovirus) (HIV-1).
In assay [19] the target is HIV-1 Env of isolate 6535.3 (pseudovirus) (HIV-1 isolate 6535.3, subtype B).
Assay [20] concerns the target HIV-1 Env of isolate 92WR009 (HIV-1).
For assay [21], the target named is HIV-1 Env of isolate MGRM-A-009 (clade A), on pseudovirus (HIV-1).
The target in assay [22] is HIV-1 Env of isolate MGRM-C-009 (HIV-1).
Assay [23] concerns the target HIV-1 Env of isolate MGRM-C-017 (HIV-1).
The target of assay [24] is HIV-1 Env of isolate MGRM-F1-022 (subtype F), on pseudovirus (HIV-1).
For assay [25], the target named is HIV-1 Env of isolate NL43 (HIV-1).
Assay [26] deals with HIV-1 JR-CSF Env P470A (HIV-1 (isolate JR-CSF)) (UniProt P20871).
The target of assay [27] is HIV-1 JR-CSF Env R480A (HIV-1 (isolate JR-CSF)) (UniProt P20871).
Assay [28] has as its target HIV-1 Env of isolate MGRM-F1-006 (HIV-1).
Assay [29] concerns the target HIV-1 Env of isolate MGRM-F1-010 (HIV-1).
Assay [30] has as its target HIV-1 Env of isolate MGRM-G-001 (subtype G) (HIV-1).
The target of assay [31] is HIV-1 Env of isolate MGRM-G-014 (subtype G) (HIV-1).
The target of assay [32] is HIV-1 Env of isolate MGRM-G-016 (subtype G) (HIV-1).
Assay [33] addresses HIV-1 Env of isolate MGRM-G-024 (subtype G) (HIV-1).
The target of assay [34] is HIV-1 envelope glycoprotein (Env) of isolate MGRM-C-022, on pseudovirus (HIV-1).
For assay [35], the target named is HIV-1 envelope glycoprotein (Env) of isolate MGRM-C-023, on pseudovirus (HIV-1).
Assay [36] deals with HIV-1 envelope glycoprotein (Env) of isolate MGRM-C-028, on pseudovirus (HIV-1).

As usually defined, the IC50 is the concentration that inhibits the measured activity by half. High values mean weaker potency, low ones greater potency.

Sequence of 5345_I01 (PGT-137) (antibody) (VH): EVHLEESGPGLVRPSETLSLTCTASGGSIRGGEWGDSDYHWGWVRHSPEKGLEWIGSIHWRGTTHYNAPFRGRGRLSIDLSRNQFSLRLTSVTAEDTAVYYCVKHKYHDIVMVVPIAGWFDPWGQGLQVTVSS
Sequence of 5345_I01 (PGT-137) (antibody) (VL): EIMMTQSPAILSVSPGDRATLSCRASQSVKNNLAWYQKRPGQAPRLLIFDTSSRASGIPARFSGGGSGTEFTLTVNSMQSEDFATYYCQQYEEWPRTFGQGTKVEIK
Sequence of 1443_C16 (PG16) (TCN-116) (antibody) (VH): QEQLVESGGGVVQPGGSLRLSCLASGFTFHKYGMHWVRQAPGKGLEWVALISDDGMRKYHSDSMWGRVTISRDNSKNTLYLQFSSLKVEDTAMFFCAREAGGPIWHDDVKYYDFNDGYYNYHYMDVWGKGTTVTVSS
Sequence of 1443_C16 (PG16) (TCN-116) (antibody) (VL): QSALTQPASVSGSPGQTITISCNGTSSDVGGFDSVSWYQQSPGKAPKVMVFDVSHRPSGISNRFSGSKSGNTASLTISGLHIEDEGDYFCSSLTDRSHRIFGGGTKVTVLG
Sequence of 5329_C19 (PGT-136) (antibody) (VH): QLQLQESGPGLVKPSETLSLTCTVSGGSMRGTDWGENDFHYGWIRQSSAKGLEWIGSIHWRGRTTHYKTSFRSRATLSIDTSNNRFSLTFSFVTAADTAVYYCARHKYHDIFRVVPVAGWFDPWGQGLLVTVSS
Sequence of 5329_C19 (PGT-136) (antibody) (VL): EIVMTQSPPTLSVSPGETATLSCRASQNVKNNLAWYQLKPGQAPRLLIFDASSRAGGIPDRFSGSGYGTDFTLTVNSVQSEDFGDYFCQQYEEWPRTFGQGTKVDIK

Consider 2F5 (antibody), for which the neutralization IC50 was > 50 µg/mL in assay [1] and 2.8 µg/mL in assay [2]. Moreover, the IC50 (µg/ml), pseudovirus neutralization in assay [3] was 8.45 µg/mL; in assay [5] it was 1.37 µg/mL. Besides, in assay [4], the IC50 was > 50 µg/mL.
Regarding 2G12 (antibody), the neutralization IC50 in assay [1] is > 50 µg/mL; in assay [2], 23.9 µg/mL. The figures for the IC50 (µg/ml), pseudovirus neutralization in assay [3] and in assay [5] were > 50 µg/mL and 14.1 µg/mL, respectively. For the same substance, in assay [6], the IC90 (pseudovirus neutralization) was > 50 µg/mL. In [4], the IC50 is > 50 µg/mL.
As for 4E10 (antibody), the neutralization IC50 in [1] was found to be 1.55 µg/mL; in assay [2], 3.8 µg/mL. In addition, the IC50 (µg/ml), pseudovirus neutralization stood at 16.9 µg/mL in assay [3] and 1.87 µg/mL in assay [5]. Also, the IC90 (pseudovirus neutralization) in assay [6] is > 50 µg/mL. In [4], this substance returned an IC50 of 5.84 µg/mL.
In the case of 1443_C16 (PG16) (TCN-116) (antibody), the neutralization IC50 in assay [1] was 0.102 µg/mL; in assay [2], > 50 µg/mL. The substance further registered an IC50, pseudovirus neutralization, 1 hour Virus/Ab Incubation in [7] of 0.0211 µg/mL. The substance also displayed an IC50, pseudovirus neutralization, 18 hour Virus/Ab Incubation in [7] of 0.0085 µg/mL. The IC50 (µg/ml), pseudovirus neutralization in assay [3] and in [5] was > 50 µg/mL throughout. This substance registered an IC50, pseudovirus neutralization (TZM-bl) in [8] of 12.3 µg/mL. The substance further gave an IC90 (pseudovirus neutralization) in assay [6] of 0.207 µg/mL. This substance displayed an IC50 in assay [4] of 0.05 µg/mL.
For 1495_C14 (PGC14) (antibody), the neutralization IC50 in assay [1] and in [2] was > 50 µg/mL each time. Besides, in assay [7], the IC50, pseudovirus neutralization, 1 hour Virus/Ab Incubation was > 50 µg/mL. In addition, the IC50, pseudovirus neutralization, 18 hour Virus/Ab Incubation in [7] is > 50 µg/mL. For the same substance, the figures for the IC50 (µg/ml), pseudovirus neutralization in assay [3] and in assay [5] were > 50 µg/mL and 46 µg/mL, respectively. For the same substance, the IC50 in assay [4] was > 50 µg/mL.
Turning to 4838_L06 (PGT-121) (antibody), in assay [9], the neutralization IC50 stood at 0.08 µg/mL. The IC50 (µg/mL), pseudovirus neutralization in [10] is 10.7 µg/mL; in [11], 0.01 µg/mL. In addition, the IC50 (µg/mL) neutralization in [12] turned out to be 0.196 µg/mL. The values for the IC50, pseudovirus neutralization in assay [13] and in [14] were 0.009 µg/mL and > 50 µg/mL, respectively.
For 4877_D15 (PGT-122) (antibody), the IC50 (µg/mL) neutralization in [15] was found to be 0.016 µg/mL; in assay [12], 3.35 µg/mL. Also, the results for the neutralization IC50 in assay [16] and in [9] were 43.7 µg/mL and 0.128 µg/mL, respectively. Moreover, the IC50 (µg/mL), pseudovirus neutralization is > 50 µg/mL in assay [10] and 0.007 µg/mL in assay [11]. In addition, the IC50 (ug/ml), neutralizing activity in assay [17] is > 10 µg/mL. Besides, the IC50, pseudovirus neutralization worked out at 0.008 µg/mL in assay [13], 0.018 µg/mL in [18] and 5.66 µg/mL in assay [14].
With 5114_A19 (PGT-128) (antibody), in [19], the IC50 (µg/mL) neutralization was 0.011 µg/mL. This substance also returned a neutralization IC50 in assay [20] of 0.812 µg/mL. In [21], this substance yielded an IC50, single-round pseudovirus neutralization of 0.005 µg/mL. Further, the IC50 in assay [22] is > 50 µg/mL; in assay [23], 1.06 µg/mL; in assay [25], > 50 µg/mL; in assay [8], 0.005 µg/mL. Also, the IC50, pseudovirus neutralization in [24] was found to be 4.54 µg/mL. Also, the Fold IC50 increase relative to wild-type in assay [26] came out at 0.6 fold; in assay [27], 0.1 fold.
The substance 5136_H01 (PGT-131) (antibody) came in with an IC50 (µg/mL) neutralization in assay [19] of 0.056 µg/mL. In addition, the neutralization IC50 in assay [20] amounted to 3.12 µg/mL. The substance also registered an IC50, single-round pseudovirus neutralization in assay [21] of 0.035 µg/mL. For the same substance, the IC50 in [22], in [23], in assay [25] and in assay [8] was > 50 µg/mL throughout. In addition, the IC50, pseudovirus neutralization in [24] is > 50 µg/mL. Further, the Fold IC50 increase relative to wild-type in assay [26] came out at 1 fold; in [27], 1.5 fold.
As for 5145_B14 (PGT-127) (antibody), the values for the IC50 (µg/mL) neutralization in assay [15] and in [12] were 6.95 µg/mL and > 50 µg/mL, respectively. The neutralization IC50 in assay [16] is > 50 µg/mL; in assay [9], 0.059 µg/mL. The IC50 (µg/mL), pseudovirus neutralization in [10] came out at 0.029 µg/mL; in assay [11] it was 0.015 µg/mL. In addition, the values for the Fold IC50 increase relative to wild-type in assay [26] and in [27] were 1 fold and 0.2 fold, respectively. For the same substance, the IC50, pseudovirus neutralization was 0.018 µg/mL in [13], 0.019 µg/mL in assay [18] and > 50 µg/mL in assay [14].
The substance 5147_N06 (PGT-130) (antibody) displayed an IC50 (µg/mL) neutralization in [19] of 0.031 µg/mL. The neutralization IC50 in [20] is 1.27 µg/mL. Further, the IC50, single-round pseudovirus neutralization in assay [21] was 0.308 µg/mL. For the same substance, the IC50 is > 50 µg/mL in assay [22], > 50 µg/mL in assay [23], > 50 µg/mL in assay [25] and 5.17 µg/mL in [8]. For the same substance, in assay [24], the IC50, pseudovirus neutralization was > 50 µg/mL. Besides, the Fold IC50 increase relative to wild-type in assay [26] stood at 2.4 fold; in [27], 1 fold. Moreover, the IC50 (ug/ml), neutralizing activity in assay [17] amounted to 0.947 µg/mL.
With 5329_C19 (PGT-136) (antibody), in assay [19], the IC50 (µg/mL) neutralization was > 50 µg/mL. In addition, the neutralization IC50 in assay [20] was > 50 µg/mL. Also, the IC50, single-round pseudovirus neutralization in assay [21] was > 50 µg/mL. Further, the IC50 was > 50 µg/mL in assay [22], > 50 µg/mL in [23], 27.7 µg/mL in [25] and > 50 µg/mL in assay [8]. The substance further yielded an IC50, pseudovirus neutralization in [24] of 2.42 µg/mL.
Take 5343_B08 (PGT-135) (antibody): the IC50 (µg/mL) neutralization in assay [19] is > 50 µg/mL. Moreover, in [20], the neutralization IC50 was > 50 µg/mL. Also, in assay [21], the IC50, single-round pseudovirus neutralization is > 50 µg/mL. Besides, the IC50 was > 50 µg/mL in assay [22], > 50 µg/mL in [23], 8.03 µg/mL in assay [25] and > 50 µg/mL in [8]. Besides, the IC50, pseudovirus neutralization in assay [24] is 0.964 µg/mL. For the same substance, the Fold IC50 increase relative to wild-type is 0.8 fold in [26] and 1.4 fold in assay [27].
As for 5345_I01 (PGT-137) (antibody), the IC50 (µg/mL) neutralization in assay [19] was > 50 µg/mL. Further, the neutralization IC50 in assay [20] was > 50 µg/mL. Also, the IC50, single-round pseudovirus neutralization in [21] is > 50 µg/mL. In addition, the IC50 in assay [22] was > 50 µg/mL; in assay [23], > 50 µg/mL; in assay [25], 17.4 µg/mL. Besides, in [24], the IC50, pseudovirus neutralization stood at 6.23 µg/mL.
Take VRC01 (antibody): the IC50, pseudovirus neutralization in assay [28] worked out at 2.86 µg/mL; in assay [29], 0.097 µg/mL; in [34], 13 µg/mL; in [35], 0.077 µg/mL; in assay [36], 0.319 µg/mL. In addition, the neutralization IC50 in assay [30] was determined as 0.0371 µg/mL; in [31] it was 0.056 µg/mL; in assay [32], 0.063 µg/mL; in assay [33], 0.025 µg/mL; in assay [25], 0.1 µg/mL; in assay [8] it was 0.218 µg/mL.
Take b12 (antibody): the neutralization IC50 in assay [1] is 34.1 µg/mL; in [2] it was > 25 µg/mL. The IC50 (µg/ml), pseudovirus neutralization in [3] is 17.6 µg/mL; in assay [5], > 50 µg/mL. Further, in assay [6], the IC90 (pseudovirus neutralization) is > 50 µg/mL. For the same substance, the IC50 in assay [4] was > 50 µg/mL.

Source of the values: patent publication US20200024330A1.
